Test results as given in patent US20090202556A1 (Kyowa Kirin, published 2009).

T1: human CLDN4 (Claudin-4) expressed by human cancer cell lines (Capan-2, HPAF-II, MCF7, HT-29, SW480, 22Rv1, DU … (human, UniProt O14493 1-209))
T1 construct: Endogenous protein on cell lines; MCF7 is said to express both CLDN3 and CLDN4; also called CLDN4 expressed in breast cancer cells, colorectal cancer cells and prostate cancer cells
T1 sequence: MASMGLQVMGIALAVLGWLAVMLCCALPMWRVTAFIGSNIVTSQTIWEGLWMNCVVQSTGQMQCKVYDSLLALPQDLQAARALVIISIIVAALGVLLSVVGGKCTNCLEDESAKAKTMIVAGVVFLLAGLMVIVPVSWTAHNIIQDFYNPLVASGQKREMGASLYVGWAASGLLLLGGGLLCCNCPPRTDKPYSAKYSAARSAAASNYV

B1: anti-CLDN4 human chimeric antibody cKM3907 (antibody, V domains shown)
VH: QVQLQQSGPELVKPGASVKISCKASGYAISTSWMNWVKQRPGKGLEWIGRINPGDGNTNYNGKFMAKATLTADKPSSTAYMQLSSLTSEDSAVYFCTRGDRWSGAMDYWGQGTSVTVSS
VL: GNVLTQSPAIMSASPGEKVTMTCRASSSVSSSYLHWYQQKSGASPKLWIYSTSNLASGVPVRFSGSGSGTSYSLTISSVEAEDAATYYCQQYSGFPLTFGAGTKLELK
notes: Human chimeric IgG: mouse V regions of KM3907 joined to the human CH and CL of vector pKANTEX93 (WO 97/10354); also called cKM3907-93 (expression vector)
B2: anti-CLDN4 human chimeric antibody cKM3900 (antibody, V domains shown)
VH: EVQLQQSGPELVKPGASVKISCKASGYTFTDYYMNWVKQSHGKSLEWIGDVVPNNGVPTYNQKFKGKATLTVDKSSSTAYMELRSLTSEDSAVYYCARPHYYYAGRSGAMDYWGQGTSVTVSS
VL: QIVLTQSPAIMSASLGERVTMTCTASSTVSSTYLHWYQQKPGSSPKLWIYSTSNLASGVPARFSGSGSGTSYSLTISSMEAEDAATYYCHQYHRSPPTFGGGTKLEIK
notes: Human chimeric IgG: mouse V regions of KM3900 joined to the human CH and CL of vector pKANTEX93 (WO 97/10354); also called cKM3900-93 (expression vector)

Assays:
[1] = molecular target: T1, human CLDN4 (Claudin-4) expressed by …; assay: FCM on live MCF7 cells (express both CLDN3 and CLDN4), 5 µg/ml
Description: (§1) Pancreatic cancer cell line Capan-2 which expresses CLDN4 was used as the evaluation cell of cKM3900, and a breast cancer cell line MCF7 which expresses both of CLDN3 and CLDN4 was used as the evaluation cell of cKM3907. The cells were cultured for 3 to 4 days and peeled off using 0.02% EDTA solution (manufactured by Nacalai Tesque) to recover the resulting cells. The thus recovered cells were washed with PBS and, in order to avoid nonspecific adsorption of antibodies, blocked using BSA-PBS at ice temperature for 30 minutes. The cells were dispensed at 1 to 5×10⁵ cells/100 μl BSA-PBS into a 96-well U bottom plate and centrifuged (1,500 rpm, 5 minutes), the supernatant was removed and then 5 μg/ml of a negative control antibody cKM3034 (anti-FGF8 human chimeric antibody) [US 2004/0091480], an anti-CLDN4 monoclonal antibody KM3900 or KM3907 or an anti-CLDN4 human chimeric antibody cKM3900 or cKM3907 was dispensed as the primary antibody at 100 μl/well and allowed to react at ice temperature for 60 minutes. […] After washing again once with PBS and subsequently suspending in PBS, the fluorescent intensity was measured by FCM (manufactured by Beckman Coulter).

[2] = molecular target: T1, human CLDN4 (Claudin-4) expressed by …; assay: FCM on live Capan-2 cells (express CLDN4), 5 µg/ml
Description: as §1

| Binder | binding result [1] | binding result [2] |
| --- | --- | --- |
| B1 | binds | – |
| B2 | – | binds |
